± gives the uncertainty stated by the source.
B1: Chromodomain-helicase-DNA-binding protein 7, residues 2564 to 2605; numbered along this chain, Q9P2D1 (parent)
chain: DPDTRIPVINLEDGTRLVGEDAPKNKDLVEWLKLHPTYTVDM

Variants of: B1
Test: abundance fitness (aPCA) (normalised: wild type 0, dead -1); higher = more abundant; growth selection in yeast, the domain comes from the species named
Details: Homo sapiens
L11G gave an abundance fitness of 0.094 ± 0.064.
With P2I the abundance fitness was -0.078 ± 0.1.
Work on R5Q yielded an abundance fitness of -0.493 ± 0.25.
With K26W the abundance fitness was -0.639 ± 0.1.
In the case of I9V, the abundance fitness is reported as 0.04 ± 0.053.
L28D showed an abundance fitness of -0.432 ± 0.056.
Work on I6D yielded an abundance fitness of -0.201 ± 0.17.
Work on E20W yielded an abundance fitness of -0.447 ± 0.075.
Work on R5P yielded an abundance fitness of -0.004 ± 0.22.
Work on W31L yielded an abundance fitness of -0.492 ± 0.07.
In the case of K33F, the abundance fitness is reported as -0.339 ± 0.061.
With K33T the abundance fitness was -0.468 ± 0.088.
K26Y gave an abundance fitness of -0.481 ± 0.072.
K24P showed an abundance fitness of -0.449 ± 0.079.
With V29N the abundance fitness was 0.126 ± 0.053.
In the case of V40G, the abundance fitness is reported as -0.367 ± 0.044.
With K24M the abundance fitness was 0.274 ± 0.14.
With V40C the abundance fitness was -0.152 ± 0.067.
With L17D the abundance fitness was -0.41 ± 0.064.
In the case of R5F, the abundance fitness is reported as -0.451 ± 0.083.
Variant D27V has an abundance fitness of -0.448 ± 0.068.
For K26A, the abundance fitness was -0.068 ± 0.072.
For E20F, the abundance fitness was -0.365 ± 0.085.
With E30Q the abundance fitness was -0.187 ± 0.13.
With R16V the abundance fitness was 0.059 ± 0.072.
I9C showed an abundance fitness of -0.123 ± 0.09.
D13N showed an abundance fitness of 0.046 ± 0.087.
With L17E the abundance fitness was -0.321 ± 0.12.
V29S showed an abundance fitness of 0.063 ± 0.084.
With W31A the abundance fitness was -0.166 ± 0.094.
G19D gave an abundance fitness of -0.125 ± 0.065.
In the case of E30A, the abundance fitness is reported as 0.027 ± 0.12.
Variant K33A has an abundance fitness of 0.162 ± 0.12.
For L34N, the abundance fitness was -0.014 ± 0.066.
With P23Q the abundance fitness was -0.252 ± 0.14.
Work on R16G yielded an abundance fitness of -0.4 ± 0.053.
In the case of H35G, the abundance fitness is reported as -0.758 ± 0.053.
In the case of W31Q, the abundance fitness is reported as -0.569 ± 0.16.
With L17W the abundance fitness was -0.527 ± 0.08.
With D21C the abundance fitness was -0.07 ± 0.091.
N10H showed an abundance fitness of -0.298 ± 0.1.
T39Q gave an abundance fitness of 0.006 ± 0.065.
D27N showed an abundance fitness of 0.019 ± 0.056.
P7M gave an abundance fitness of -0.297 ± 0.12.
With D3I the abundance fitness was -0.54 ± 0.094.
Variant V18M has an abundance fitness of 0.091 ± 0.062.
With Y38C the abundance fitness was -0.445 ± 0.057.
In the case of V40F, the abundance fitness is reported as -0.59 ± 0.079.
Work on A22S yielded an abundance fitness of -0.358 ± 0.051.
Y38E showed an abundance fitness of -0.387 ± 0.073.
For K33S, the abundance fitness was -0.01 ± 0.055.
D41A showed an abundance fitness of -0.396 ± 0.064.
Variant A22E has an abundance fitness of -0.839 ± 0.14.
Variant N25S has an abundance fitness of -0.101 ± 0.082.
In the case of K24Y, the abundance fitness is reported as -0.237 ± 0.07.
With D21I the abundance fitness was -0.512 ± 0.12.
Work on N25R yielded an abundance fitness of -0.1 ± 0.07.
With M42I the abundance fitness was -0.189 ± 0.097.
In the case of V8W, the abundance fitness is reported as -0.794 ± 0.15.
For V29L, the abundance fitness was -0.109 ± 0.053.
M42S gave an abundance fitness of 0.111 ± 0.06.
In the case of T37N, the abundance fitness is reported as -0.059 ± 0.072.
Work on E20T yielded an abundance fitness of -0.027 ± 0.082.
In the case of V8F, the abundance fitness is reported as -0.869 ± 0.089.
For L32I, the abundance fitness was -0.434 ± 0.093.
E20G gave an abundance fitness of -0.196 ± 0.049.
V29A gave an abundance fitness of 0.11 ± 0.068.
For L11E, the abundance fitness was 0.058 ± 0.077.
In the case of L11T, the abundance fitness is reported as 0.353 ± 0.067.
V40R showed an abundance fitness of -0.065 ± 0.047.
In the case of G19F, the abundance fitness is reported as -0.852 ± 0.13.
For Y38L, the abundance fitness was -0.632 ± 0.082.
With I6V the abundance fitness was 0.262 ± 0.1.
T15A gave an abundance fitness of 0.069 ± 0.082.
D21R gave an abundance fitness of -0.316 ± 0.065.
P36C gave an abundance fitness of -0.78 ± 0.067.
In the case of D3S, the abundance fitness is reported as -0.137 ± 0.051.
D3G showed an abundance fitness of -0.384 ± 0.053.
In the case of G19A, the abundance fitness is reported as -0.292 ± 0.11.
With D1L the abundance fitness was -0.43 ± 0.062.
D21Y showed an abundance fitness of -0.165 ± 0.06.
L32N showed an abundance fitness of -0.342 ± 0.068.
With L17I the abundance fitness was -0.012 ± 0.072.
For L17V, the abundance fitness was -0.17 ± 0.055.
P23E gave an abundance fitness of -0.684 ± 0.14.
I6N showed an abundance fitness of -0.419 ± 0.31.
For K24A, the abundance fitness was -0.022 ± 0.065.
N10V gave an abundance fitness of -0.852 ± 0.086.
In the case of D21L, the abundance fitness is reported as -0.161 ± 0.075.
With P7T the abundance fitness was -0.046 ± 0.34.
D3T gave an abundance fitness of -0.182 ± 0.05.
K26L gave an abundance fitness of -0.559 ± 0.074.
In the case of P2H, the abundance fitness is reported as -0.737 ± 0.18.
Variant W31G has an abundance fitness of -0.163 ± 0.046.
For H35M, the abundance fitness was -0.469 ± 0.088.
Variant K26C has an abundance fitness of -0.166 ± 0.056.
In the case of V18Q, the abundance fitness is reported as 0.108 ± 0.087.
With D13V the abundance fitness was -0.421 ± 0.071.
Variant D13G has an abundance fitness of -0.268 ± 0.078.
For N25P, the abundance fitness was -0.4 ± 0.12.
Variant T15P has an abundance fitness of -0.252 ± 0.16.
T39N showed an abundance fitness of -0.162 ± 0.064.
G19M gave an abundance fitness of -0.442 ± 0.073.
For P36S, the abundance fitness was -0.457 ± 0.066.
In the case of R16L, the abundance fitness is reported as -0.077 ± 0.39.
For D27C, the abundance fitness was -0.175 ± 0.089.
G14W gave an abundance fitness of -0.084 ± 0.29.
Variant R5W has an abundance fitness of -0.906 ± 0.2.
Variant D27K has an abundance fitness of -0.517 ± 0.18.
Work on R5N yielded an abundance fitness of -0.349 ± 0.081.
For D3L, the abundance fitness was -0.122 ± 0.052.
Variant D21A has an abundance fitness of -0.279 ± 0.093.
Work on E30M yielded an abundance fitness of -0.313 ± 0.1.
Work on D21S yielded an abundance fitness of -0.093 ± 0.076.
For R16H, the abundance fitness was 0.071 ± 0.077.
Work on L34F yielded an abundance fitness of -0.334 ± 0.12.
With K24C the abundance fitness was -0.094 ± 0.061.
For D41C, the abundance fitness was -0.531 ± 0.067.
For N10T, the abundance fitness was -0.466 ± 0.2.
Work on A22T yielded an abundance fitness of -0.527 ± 0.082.
Work on T39K yielded an abundance fitness of 0.076 ± 0.063.
Work on T37R yielded an abundance fitness of -0.05 ± 0.064.
For N10G, the abundance fitness was -0.388 ± 0.061.
In the case of D1E, the abundance fitness is reported as -1.19 ± 0.23.
Variant L17H has an abundance fitness of -0.095 ± 0.41.
E20V gave an abundance fitness of -0.195 ± 0.049.
Work on G14R yielded an abundance fitness of -0.168 ± 0.074.
Work on L17R yielded an abundance fitness of -0.046 ± 0.064.
For T37L, the abundance fitness was -0.159 ± 0.073.
Work on M42G yielded an abundance fitness of -0.096 ± 0.15.
With D41M the abundance fitness was -0.531 ± 0.072.
With V8I the abundance fitness was -0.433 ± 0.45.
Work on L11S yielded an abundance fitness of 0.193 ± 0.053.
Variant D41R has an abundance fitness of -0.841 ± 0.058.
In the case of D41W, the abundance fitness is reported as -0.84 ± 0.2.
Variant W31V has an abundance fitness of -0.336 ± 0.059.
In the case of L28M, the abundance fitness is reported as -0.321 ± 0.06.
With N25W the abundance fitness was -0.418 ± 0.066.
For T37G, the abundance fitness was 0.022 ± 0.054.
N10K showed an abundance fitness of -0.341 ± 0.065.
Variant M42A has an abundance fitness of 0.132 ± 0.081.
G19I gave an abundance fitness of -0.644 ± 0.075.
With P2Q the abundance fitness was 0.182 ± 0.059.
Variant D41I has an abundance fitness of -0.871 ± 0.097.
K33V showed an abundance fitness of -0.261 ± 0.059.
Work on D21M yielded an abundance fitness of -0.161 ± 0.078.
Variant L32T has an abundance fitness of -0.334 ± 0.14.
In the case of K26V, the abundance fitness is reported as -0.166 ± 0.059.
Work on P2D yielded an abundance fitness of -0.301 ± 0.19.
Work on N25M yielded an abundance fitness of -0.086 ± 0.092.
K24W showed an abundance fitness of -0.426 ± 0.078.
Variant E20M has an abundance fitness of -0.235 ± 0.15.
In the case of P7N, the abundance fitness is reported as -0.145 ± 0.22.
With L34C the abundance fitness was -0.002 ± 0.06.
For L28K, the abundance fitness was -0.454 ± 0.14.
For L11H, the abundance fitness was 0.293 ± 0.073.
In the case of Y38P, the abundance fitness is reported as -0.916 ± 0.46.
V29D showed an abundance fitness of -0.022 ± 0.087.
D21V showed an abundance fitness of -0.508 ± 0.063.
In the case of E20K, the abundance fitness is reported as -0.125 ± 0.1.
In the case of V18R, the abundance fitness is reported as -0.081 ± 0.055.

From the Human Domainome abundance scans (Beltran et al. 2025)
